± gives the half width of the 95% confidence interval.
Assay: folding stability dG unfold from chymotrypsin proteolysis; higher = more stable
Procedure, shortened: (§1)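 Sequencing followed digestion of designed mini-proteins with trypsin and chymotrypsin, each at 11 concentrations in threefold dilutions together with a no-protease condition. The mini-proteins were under 80 residues, had no cysteine, sat in a PA-tagged cDNA display construct, and were kept only if AlphaFold2 dimer inter-PAE was above 15. From the counts, Bayesian fitting gave K50, and unfolding free energy was derived against a sequence-predicted unfolded-state K50 and a shared folded-state K50, per protease or combined.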

Row | Sequence | folding stability dG unfold
1 | SAGGSAGGSAKVKIVIKNENGEEFEIEMSEEELKKKLKPGDKVKIKIEKVNGKLKITIEKESAGGSAGGSAG [r3_86_TrROS_Hall] | 2.11 ± 0.16 kcal/mol
2 | SAGGSAGGVISEEEIEAKAEEAKAEAIAAGLESKEVTITSPSGKVYKITVDVNSITIEKSPAAGSAGGSAGG [r6_270_JUSTAS] | 0.743 ± 0.088 kcal/mol
3 | SALKGLKITEIKEVTNEDGSKSLVVRVDGYLLVFDLDTKKLTLVPLPPVTVTVTVYEKKADPNKPEYKKKSA [r9_1065_TrROS_Hall] | 3.15 ± 0.056 kcal/mol
4 | SAGGSAGGSMKTKTIEIEIDGKKVRITIDSDGNITIEVPSEEVKEALKKLLPPGVKITKIEPVSAGGSAGGS [r12_9_TrROS_Hall] | 1.61 ± 0.1 kcal/mol
5 | SAMTKEEAKENGHIYIMVKIEVTWPNGGKREFPIFFPFPSLDEAKEQIRSFFRRMNFKVKIDDISIFPVSAG [r14_854_TrROS] | 3.745 ± 0.027 kcal/mol
6 | SEETLRILIRDPATGELREIEVRAGETVTVTFPDGSTVTLRITVVAAPPPPPKTVTLDPNETVEEGETVLSA [r9_467_TrROS_Hall] | 1.9 ± 0.038 kcal/mol
7 | MPDISRAEIKALAEKLGLPVPDGTITIKFTYGDKTITVPVDAKKDITLGDIVEAIKKKNPNIKKIEIVAEPS [r1_135_TrMRF] | 0.808 ± 0.08 kcal/mol
8 | SASKGSSMITVELTVTVPPSVSIEEVKKQFEEEFPKDAEIKVEATPVTVPANGTPVTTIKVTVTITKKESAG [r14_633_JUSTAS] | 1.71 ± 0.11 kcal/mol
9 | SWKIKISIERTGDWITVKIWYDNPSELRNAIEMIAEKLGMKVEIDDVSWKRDPNGWYEATITVRIKPGMPSA [r9_102_TrROS] | 3.31 ± 0.077 kcal/mol
10 | SAGGGTTITLSFADGTTKTLTLPGLTEVVEEPGRVVVRADVPERRVVVTFEPATGTITVEEFAPEEPVSAGG [r13_392_JUSTAS] | 2.27 ± 0.057 kcal/mol
11 | SAGGSTVSVVPFPDYLLVVTTDVRRTPVPDTDTVSTELTTTVTVIPLPDVPPPVLPFLDADGNPYYASAGGS [r8_46_TrMRF] | 0.522 ± 0.11 kcal/mol
12 | SAMIEIEIEVEEREDGRLIVRVRIRNKETGEEIELELEMSREEVEKLLEELKKLFPNLEIVEVEIRELPSAG [r14_969_TrROS_Hall] | 3.29 ± 0.24 kcal/mol
13 | SSDIKIEIDIERNDDGYLTFTIEIRHPDPQQLVDAAKEIILELFPPGVNIDVEPHPDGWVKAPIMFPLPKSA [r9_646_TrROS] | 1.63 ± 0.086 kcal/mol
14 | SAGGSAGGSAGMPKVEAVDISYSADPNSKSYTITIKSPDGEPIVLTLNSPSEIENLELVLSAGGSAGGSAGG [r11_711_JUSTAS] | 1.34 ± 0.1 kcal/mol
15 | SAGGEVKYEHEGKNPDNGNMYKQEQEVPPVPIPPVIVIPAEDLDEFRELGIPENFKILPGNGWIVITSAGGS [r16_194_TrROS] | 0.154 ± 0.25 kcal/mol
16 | SAGGSAGGSALKPGEPITIIFLFKEPNGRPYIMVIEIEVNPDGGIKIKGMEMITLEDLDKISAGGSAGGSAG [r3_212_TrROS] | 4.54 ± 0.19 kcal/mol
17 | SAGGSALDPDDLEKVTIEFMFYNPNGNLLYEMTLEIYPDDGVIKMEHKQRRPGEPQKVTMEFPFDPSAGGSA [r15_278_TrROS] | 1.67 ± 0.18 kcal/mol
18 | SAGGSAGGSKKVKVTIEYDKETGVVKVTVEDPETGEKYTVTAKFEFDKNGKLVKVEVVSIEKESAGGSAGGS [r12_791_TrROS_Hall] | 3.94 ± 0.11 kcal/mol
19 | SAGGSAGGRLEPITEEEALELARLLAEYIRRLFPGDPRPHLVVVPILVPTPEDGYRLFLAVIAESAGGSAGG [r6_844_TrMRF] | 4.1 ± 0.039 kcal/mol
20 | SAGSSMSVTIKVTIRSPTRTEEIEITVSPSESLEEAIKKVAEKLPPDYSITITFEGGETVTIPIPKELLSAG [r5_77_JUSTAS] | 1.15 ± 0.024 kcal/mol
21 | SAGGSAGGSAGMELTVKVPPDTTPEEVKEKIEKELGLKVKSISVSSFPDGTRTVTITIGPSAGGSAGGSAGG [r17_222_JUSTAS] | 2.45 ± 0.14 kcal/mol

Assay: folding stability dG unfold (combined trypsin and chymotrypsin); higher = more stable
Procedure, shortened: as §1

Row | Sequence | folding stability dG unfold
22 | SAGGSAGGSAGKLRYRYRFDTVLLEVTYDPSTGEVVEVKVIPLSPLPPLTPEELYRLLEDSAGGSAGGSAGG [r11_320_TrMRF] | 2.82 ± 0.056 kcal/mol
23 | SAGGSAKPEPIKIEIGPGGNRFKATFPNGDEADVDVVKDGDKTYLLITVTSPDGKPRPFKIPLEKLSAGGSA [r15_941_TrMRF] | 2.1 ± 0.05 kcal/mol
24 | SAGGSAEWKEKALKMGAKEVKEDPANGYLYVTFPGPGRTIVIWKKEEDGTVTKVKTVSPSVKVEYKSAGGSA [r15_247_JUSTAS] | 0.491 ± 0.18 kcal/mol
25 | SAGGSAGGSKSYEIKEITFDPENNTITIVLVAPDGKIVRTETFKPGEEVVFTFENGEKVTVKASAGGSAGGS [r12_441_TrMRF] | 2.54 ± 0.05 kcal/mol
26 | SAGGSAPEIPTDALVRVRDPNSDKWYEATVLEARKLPGGELVYLIRLTKDGNEELVPTDLATVELKSAGGSA [r15_62_JUSTAS] | 1.29 ± 0.098 kcal/mol
27 | SAGGSAGGSANWKEIDGTLPWGLRVKVWVSPGNGQLMIEIKPVPPPPPPKISPEDADKANADSAGGSAGGSA [r18_236_TrROS] | 3.39 ± 0.3 kcal/mol
28 | SAGGSAGGSAGLELTVGDVPVDVYVDPDTERALAYFPLFNRVAIVDLPTGKVYVVPLDDILSAGGSAGGSAG [r3_137_TrMRF] | 1.15 ± 0.076 kcal/mol
29 | SAGGSAGGSMETRTFDSEEELRASVSVPSSLSVTFERRPGRWEVRIEPPLSPEEIAAQRARLLSAGGSAGGS [r12_274_JUSTAS] | -0.553 ± 0.11 kcal/mol
30 | SAGGSAGRVRVELELEIVVDTPEEARALAEELARRFPSIVRVEVEVRRRPDGRLVVRVRLEVELPPSAGGSA [r15_726_TrROS_Hall] | 3.31 ± 0.1 kcal/mol
31 | SAGGSAVTVVTVELTSPGSTHTITIPASEVEGLSLEEIEARLKALPEVSEITLTRSELPPLNPSLASAGGSA [r2_282_JUSTAS] | 0.802 ± 0.046 kcal/mol

Source: the supplement of paper PMC12764529
